# Measurements as given in IntAct's records for PubMed 24510189.
# B1: mRNA-decapping enzyme 1A (Homo sapiens), Q9NPI6 (parent)
# chain: MEALSRAGQEMSLAALKQHDPYITSIADLTGQVALYTFCPKANQWEKTDIEGTLFVYRRSASPYHGFTIVNRLNMHNLVEPVNKDLEFQLHEPFLLYRNASLSIYSIWFYDKNDCHRIAKLMADVVEEETRRSQQAARDKQSPSQANGCSDHRPIDILEMLSRAKDEYERNQMGDSNISSPGLQPSTQLSNLGSTETLEEMPSGSQDKSAPSGHKHLTVEELFGTSLPKEQPAVVGLDSEEMERLPGDASQKEPNSFLPFPFEQLGGAPQSETLGVPSAAHHSVQPEITTPVLITPASITQSNEKHAPTYTIPLSPVLSPTLPAEAPTAQVPPSLPRNSTMMQAVKTTPRQRSPLLNQPVPELSHASLIANQSPFRAPLNVTNTAGTSLPSVDLLQKLRLTPQHDQIQTQPLGKGAMVASFSPAAGQLATPESFIEPPSKTAAARVAASASLSNMVLAPLQSMQQNQDPEVFVQPKVLSSAIPVAGAPLVTATTTAVSSVLLAPSVFQQTVTRSSDLERKASSPSPLTIGTPESQRKPSIILSKSQLQDTLIHLIKNDSSFLSTLHEVYLQVLTKNKDNHNL
# Variants of: B1
# Conditions: with pnrc2_human PNRC2, Q9NPJ4
# Chain of pnrc2_human PNRC2, Q9NPJ4 (Q9NPJ4 whole entry): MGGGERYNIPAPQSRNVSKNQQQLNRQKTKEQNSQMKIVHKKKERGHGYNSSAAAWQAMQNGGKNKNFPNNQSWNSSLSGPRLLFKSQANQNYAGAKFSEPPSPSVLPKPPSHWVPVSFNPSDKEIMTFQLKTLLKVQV
row,effect of a mutation on the interaction,Variant
1,with no effect,MEALSRAGQEMSLAALKQHDPYITSIADLTGQVALYTFCPKANQWEKTDIEGTLFVYRRSASPYHGFTIVNGLGMHNLVEPVNKDLEFQLHEPFLLYRNASLSIYSIWFYDKNDCHRIAKLMADVVEEETRRSQQAARDKQSPSQANGCSDHRPIDILEMLSRAKDEYERNQMGDSNISSPGLQPSTQLSNLGSTETLEEMPSGSQDKSAPSGHKHLTVEELFGTSLPKEQPAVVGLDSEEMERLPGDASQKEPNSFLPFPFEQLGGAPQSETLGVPSAAHHSVQPEITTPVLITPASITQSNEKHAPTYTIPLSPVLSPTLPAEAPTAQVPPSLPRNSTMMQAVKTTPRQRSPLLNQPVPELSHASLIANQSPFRAPLNVTNTAGTSLPSVDLLQKLRLTPQHDQIQTQPLGKGAMVASFSPAAGQLATPESFIEPPSKTAAARVAASASLSNMVLAPLQSMQQNQDPEVFVQPKVLSSAIPVAGAPLVTATTTAVSSVLLAPSVFQQTVTRSSDLERKASSPSPLTIGTPESQRKPSIILSKSQLQDTLIHLIKNDSSFLSTLHEVYLQVLTKNKDNHNL [R72G;N74G]

# Variants of: B1
# Conditions: with dcp2_human DCP2, Q8IU60
row,effect of a mutation on the interaction,Variant
1,disrupting interaction strength,MEALSRAGQEMSLAALKQHDPYITSIADLTGQVALYTFCPKANQWEKTDIEGTLFVYRRSASPYHGFTIVNRLNMHNLVEPVNKDLEFQLHEPFLLYRNASLSIYSIWFYDKNDCHRIAKLMADVVEEETRRSQQAARDKQSPSQANGCSDHRPIDILEMLSRAKDEYERNQMGDSNISSPGLQPSTQLSNLGSTETLEEMPSGSQDKSAPSGHKHLTVEELFGTSLPKEQPAVVGLDSEEMERLPGDASQKEPNSFLPFPFEQLGGAPQSETLGVPSAAHHSVQPEITTPVLITPASITQSNEKHAPTYTIPLSPVLSPTLPAEAPTAQVPPSLPRNSTMMQAVKTTPRQRSPLLNQPVPELSHASLIANQSPFRAPLNVTNTAGTSLPSVDLLQKLRLTPQHDQIQTQPLGKGAMVASFSPAAGQLATPESFIEPPSKTAAARVAASASLSNMVLAPLQSMQQNQDPEVFVQPKVLSSAIPVAGAPLVTATTTAVSSVLLAPSVFQQTVTRSSDLERKASSPSPLTIGTPESQRKPSIILSKSQLQDTLIHSIKNDSSRLSTSHEVYLQVLTKNKDNHNL [L554S;F561R;L565S]
2,with no effect,MEALSRAGQEMSLAALKQHDPYITSIADLTGQVALYTFCPKANQWEKTDIEGTLFVYRRSASPYHGFTIVNGLNMHNLVEPVNKDLEFQLHEPFLLYRNASLSIYSIWFYDKNDCHRIAKLMADVVEEETRRSQQAARDKQSPSQANGCSDHRPIDILEMLSRAKDEYERNQMGDSNISSPGLQPSTQLSNLGSTETLEEMPSGSQDKSAPSGHKHLTVEELFGTSLPKEQPAVVGLDSEEMERLPGDASQKEPNSFLPFPFEQLGGAPQSETLGVPSAAHHSVQPEITTPVLITPASITQSNEKHAPTYTIPLSPVLSPTLPAEAPTAQVPPSLPRNSTMMQAVKTTPRQRSPLLNQPVPELSHASLIANQSPFRAPLNVTNTAGTSLPSVDLLQKLRLTPQHDQIQTQPLGKGAMVASFSPAAGQLATPESFIEPPSKTAAARVAASASLSNMVLAPLQSMQQNQDPEVFVQPKVLSSAIPVAGAPLVTATTTAVSSVLLAPSVFQQTVTRSSDLERKASSPSPLTIGTPESQRKPSIILSKSQLQDTLIHLIKNDSSFLSTLHEVYLQVLTKNKDNHNL [R72G]

# Variants of: B1
# Conditions: with dcp2_human DCP2, Q8IU60
# Remark: another data set of the same source
row,effect of a mutation on the interaction,Variant
1,disrupting interaction strength,MEALSRAGQEMSLAALKQHDPYITSIADLTGQVALYTFCPKANQWEKTDIEGTLFVYRRSASPYHGFTIVNRLNMHNLVEPVNKDLEFQLHEPFLLYRNASLSIYSIWFYDKNDCHRIAKLMADVVEEETRRSQQAARDKQSPSQANGCSDHRPIDILEMLSRAKDEYERNQMGDSNISSPGLQPSTQLSNLGSTETLEEMPSGSQDKSAPSGHKHLTVEELFGTSLPKEQPAVVGLDSEEMERLPGDASQKEPNSFLPFPFEQLGGAPQSETLGVPSAAHHSVQPEITTPVLITPASITQSNEKHAPTYTIPLSPVLSPTLPAEAPTAQVPPSLPRNSTMMQAVKTTPRQRSPLLNQPVPELSHASLIANQSPFRAPLNVTNTAGTSLPSVDLLQKLRLTPQHDQIQTQPLGKGAMVASFSPAAGQLATPESFIEPPSKTAAARVAASASLSNMVLAPLQSMQQNQDPEVFVQPKVLSSAIPVAGAPLVTATTTAVSSVLLAPSVFQQTVTRSSDLERKASSPSPLTIGTPESQRKPSIILSKSQLQDTLIHSIKNDSSRLSTSHEVYLQVLTKNKDNHNL [L554S;F561R;L565S]

# Variants of: B1
# Conditions: with dcp2_human DCP2, Q8IU60
# Remark: another data set of the same source
row,effect of a mutation on the interaction,Variant
1,with no effect,MEAESRAGQEMSLQALKQHDPYITSIADLTGQVALYTFCPKANQWEKTDIEGTLFVYRRSASPYHGFTIVNRLNMHNLVEPVNKDLEFQLHEPFLLYRNASLSIYSIWFYDKNDCHRIAKLMADVVEEETRRSQQAARDKQSPSQANGCSDHRPIDILEMLSRAKDEYERNQMGDSNISSPGLQPSTQLSNLGSTETLEEMPSGSQDKSAPSGHKHLTVEELFGTSLPKEQPAVVGLDSEEMERLPGDASQKEPNSFLPFPFEQLGGAPQSETLGVPSAAHHSVQPEITTPVLITPASITQSNEKHAPTYTIPLSPVLSPTLPAEAPTAQVPPSLPRNSTMMQAVKTTPRQRSPLLNQPVPELSHASLIANQSPFRAPLNVTNTAGTSLPSVDLLQKLRLTPQHDQIQTQPLGKGAMVASFSPAAGQLATPESFIEPPSKTAAARVAASASLSNMVLAPLQSMQQNQDPEVFVQPKVLSSAIPVAGAPLVTATTTAVSSVLLAPSVFQQTVTRSSDLERKASSPSPLTIGTPESQRKPSIILSKSQLQDTLIHLIKNDSSFLSTLHEVYLQVLTKNKDNHNL [L4E;A14Q]
